Measured values: PMC12141716, “An archaeal nucleoid-associated protein binds an essential motif in DNA replication origins” (Nature Communications, 2025)

Target: T1, UBP (Sulfolobus islandicus REY15A, UniProt F0NFD3 1-111)
T1 sequence: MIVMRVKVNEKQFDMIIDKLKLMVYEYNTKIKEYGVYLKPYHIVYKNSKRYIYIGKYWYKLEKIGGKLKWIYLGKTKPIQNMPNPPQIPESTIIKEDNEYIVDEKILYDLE
Assay: thermal melting protection; 55-65 C, 50 mM NaCl; EMSA: 50 mM K-acetate, 20 mM Tris-acetate, 10 mM Mg-acetate, 1 mM DTT, pH 7.9, 5-10% glycerol, 70 mM NaCl, 800 ng salmon sperm DNA per 10 ul, room temperature 10 min; footprinting same buffer, 4% glycerol, 8000 ng salmon sperm DNA; pull-down 25 mM HEPES pH 7.5, 150 mM NaCl, 10 mM MgCl, 100 uM ZnCl, 10 mM DTT, 48 C
Details: protein: recombinant; tags: MBP tag removed by Factor Xa; 3 extra vector residues at N-terminus; chain copies: 2; label: 5'-32P; 40 bp duplex with 10 nt C overhangs at 5' and 3' of strand 2

B1: 40 bp duplex for melting (P19/P20) (dsDNA)
DNA 1: ATAATTAGATAACCATTATACAAAAGAATTGTATAAGAAT
DNA 2: CCCCCCCCCCATTCTTATACAATTCTTTTGTATAATGGTTATCTAATTATCCCCCCCCCC
binding result: binds
